Here are results for 3 molecules from patent US20180009906A1 (CURED, published 2018).

Test [1] deals with T1, full length serine hydroxymethyltransferase (SEQ ID NO: 74), c-Myc tagged at the C-terminus (Escherichia coli, UniProt A7ZPZ4 1-417).
T1 construct: Expressed in Escherichia coli (DH5α); tested denatured in Western blotting of cell lysate; also called SHMT; full length: wild-type
T1 sequence: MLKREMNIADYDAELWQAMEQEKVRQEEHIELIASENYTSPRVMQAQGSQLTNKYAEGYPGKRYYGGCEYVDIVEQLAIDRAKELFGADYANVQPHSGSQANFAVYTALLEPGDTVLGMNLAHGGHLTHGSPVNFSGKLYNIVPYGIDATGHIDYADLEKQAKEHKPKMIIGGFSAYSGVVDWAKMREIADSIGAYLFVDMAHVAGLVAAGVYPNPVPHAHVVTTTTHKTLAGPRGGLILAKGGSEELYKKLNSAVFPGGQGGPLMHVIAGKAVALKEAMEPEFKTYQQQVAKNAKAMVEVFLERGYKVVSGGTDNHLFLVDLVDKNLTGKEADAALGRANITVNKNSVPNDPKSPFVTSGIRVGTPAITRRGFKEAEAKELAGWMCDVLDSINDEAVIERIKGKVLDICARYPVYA
Kind of test: Western blot of c-Myc-tagged full-length SHMT expressed in E. coli (DH5α). Background: In western blotting, separated proteins are transferred to a membrane and probed.

For test [2], the target named is T2, serine hydroxymethyltransferase Δ2-28 mutant (Escherichia coli, UniProt A7ZPZ4 29-417).
T2 construct: Expressed in Escherichia coli cells and 293T cells; tested in Western blotting of cell lysate; not shown: Myc-tag (40aa) at the C-terminus
T2 sequence: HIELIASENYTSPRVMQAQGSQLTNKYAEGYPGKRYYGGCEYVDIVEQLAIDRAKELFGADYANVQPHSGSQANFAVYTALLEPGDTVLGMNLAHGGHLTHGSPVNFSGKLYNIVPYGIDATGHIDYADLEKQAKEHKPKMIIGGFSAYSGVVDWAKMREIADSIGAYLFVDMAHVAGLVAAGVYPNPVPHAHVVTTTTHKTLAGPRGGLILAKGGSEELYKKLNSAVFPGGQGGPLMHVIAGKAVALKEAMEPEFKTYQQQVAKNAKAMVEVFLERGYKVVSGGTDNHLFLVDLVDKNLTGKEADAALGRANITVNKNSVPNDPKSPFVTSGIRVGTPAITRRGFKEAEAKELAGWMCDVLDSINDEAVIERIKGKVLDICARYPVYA
Kind of test: Western blot of cell lysates (E. coli and 293T expression).

B1: W11 monoclonal IgA antibody (antibody, V domains shown)
VH: QVQLKQSGPGLVQPSQSLSITCTVSGFSLTNYGVHWIRQSPGKGLEWLGVIWSGGRIDYNAAFISRLNINKDNSKSQVFFKMNSLQTDDTAIYYCARTYDGYYFFQYWGQGTPLTVSS
VL: DVVMTQTPLSLPVSLGDEASISCRSSRSLIHSNGHTFLDWYLQKPGQSPKLLIYKVSNRFSGVPDRFSGSGSGTDFTLKISRVEAEDLGVYFCAQSTHAPLLTFGAGTKLELKR
notes: Mouse IgA from hybridoma
Take B1: the binding result in test [1] is on record as “binds”.

B2: W34 monoclonal IgA antibody (antibody, V domains shown)
VH: DVQLQESGPGMVKPSQSLSLTCTVTGYSITSGYDWHWIRHFPGNKLEWMGYISYSGSTDYNPALRSRISITRDTSTNHFFLKVNSVTTEDTATYYCARDGYGSNYVMAYWGQGTSVTVSS
VL: QIVLTQSPAIMSASPGEKVTITCSASSSVHYIHWFQLKPGTSPKLWIYSTSNLASGVPARFSGSGSGTSYSLTISRMEAEDAATYYCQQRSSYPLTFGAGTKLELKR
notes: Mouse IgA from hybridoma
Regarding B2, in test [1], the binding result is “binds”.

B3: W27 monoclonal IgA antibody (antibody, V domains shown)
VH: EVQLQQSGSELVKSGASVKLSCTVSGFNFTDYYIHWVRQRTEQGLEWIGRIDPENDETTYAPKFQGKATMTADTSSNTAYLQLTSLTSEDTAVYYCARSTVLDYWGHGTTLTVSS
VL: DVLMTQTPLSLPVSLGDQASISCRASQSIVHTNGNTYLEWYLQKPGQSPKLLIYKVSNRFSGVPDRFSGSGSGTDFILKISRVEAEDLGVYYCFQGSHVPPTFGGGTKLEVKR
notes: Mouse IgA from a hybridoma of small-intestinal lamina propria B cells of wild-type C57BL/6 mice, partially purified
For the molecule B3, the binding result in test [2] is “no binding”.
